Tests used:
JAM-B = target: T1, JAM-B (Mus musculus, UniProt Q9JI59); test: yeast two hybrid interaction of Grasp55 constructs with JAM-B; type: binding, murine; design: key: Symbols “+++” and “−” indicates the growth of yeast on selective media as shown in the FIGURE 13; Symbols “+++” and “−” indicates the growth of yeast on selective media as shown in the FIGURE 13
T1 construct: amino-acids 258 to 298 of murine JAM-B; expressed in transfected cells; host or cells: AH109 yeast strain
T1 sequence (Q9JI59 258-298): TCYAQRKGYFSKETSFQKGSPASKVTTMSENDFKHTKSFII
Excerpt: (§1) The different GRASP55 constructs were cloned into pGBT9 GW vector (Ga14 DNA-binding domain fusion vector, Trp) as well in the pACT2 GW vector (Gal4 DNA-activation domain fusion vector, Leu) using the Gateway technology (Invitrogen). Plasmids were then co-transformed in AH109 yeast strain (/MATa, trp1-901, leu2-3, 112, ura3-52, his3-200, gal4/A, /gal80/A, /LYS2::GAL1//UAS//-GAL1//TATA//-HIS3, GAL2//UAS//-GAL2//TATA//-ADE2, URA3::MEL1//UAS//-MEL1//TATA//-lacZ, MEL1/) in accordance with the previously described transformation protocol (Chien et al. 1991. Proc Natl Acad Sci USA. 88:9578-82). Following co-transformation with the two vectors containing the different constructs (as well as the empty vector to test self activation), yeasts were plated onto Synthetic Complete (SC) medium minus Leucine (−L), minus Tryptophan (−W), minus Histidine (−H) and incubated at 30° C. for 4 to 5 days. All yeast media were prepared as previously described.
(§2) In examples 2, the inventors have previously shown that interaction between Grasp55 and C-terminal part of JAM-C requires the peptidic sequence between residues 1 to 160 of Grasp55 (PDZI+II) but cannot occur with residues 1 to 79 of Grasp55 (PDZI) by yeast two hybrid and ELISA assay (FIGS. 2 and 8). In the present example, the interaction sites between JAMs or metalloproteinases involved in JAM regulation and Grasp55 have been mapped using new constructs. To this end, yeast two-hybrid and GST fusion proteins encompassing residues 1 to 107, 108 to 208, and 1 to 208 corresponding respectively to the PDZI′, PDZII′ and PDZI′+II′ constructs have been generated. The former PDZII construct (residues 80 to 160) have also been used to test interaction with the C-terminal sequences of ADAM 10 (of sequence SEQ ID NO: 41) and ADAM 17 (of sequence SEQ ID NO: 42) known to regulate JAM-A and JAM-C release (Table 1). GST fusion proteins were produced and yeast two-hybrid assay was performed as previously described in example 1.

ADAM10 = target: T2, ADAM10 (Mus musculus, UniProt O35598, DEL741-741); test: yeast two hybrid interaction of Grasp55 constructs with ADAM10 C-terminal sequence; type: binding, murine; design: key: Symbols “+++” and “−” indicates the growth of yeast on selective media as shown in the FIGURE 13; Symbols “+++” and “−” indicates the growth of yeast on selective media as shown in the FIGURE 13
T2 construct: expressed in transfected cells; host or cells: AH109 yeast strain
T2 sequence (O35598 with tags, fused parts or gaps DEL741-741): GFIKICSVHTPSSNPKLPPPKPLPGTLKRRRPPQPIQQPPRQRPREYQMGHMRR
Excerpt: as §1, §2

JAM-C ΔPDZbm = target: T3, JAM-C ΔPDZbm (Mus musculus, UniProt Q9D8B7); test: yeast two hybrid interaction of Grasp55 constructs with JAM-C ΔPDZbm; type: binding, murine; design: key: Symbols “+++” and “−” indicates the growth of yeast on selective media as shown in the FIGURE 13; Symbols “+++” and “−” indicates the growth of yeast on selective media as shown in the FIGURE 13
T3 construct: amino-acids 263 to 310 of murine JAM-C; expressed in transfected cells; host or cells: AH109 yeast strain
T3 sequence (Q9D8B7 263-307 limits assumed): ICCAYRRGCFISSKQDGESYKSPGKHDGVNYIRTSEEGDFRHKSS
Excerpt: as §1, §2

JAM-C = target: T4, JAM-C (Mus musculus, UniProt Q9D8B7); test: yeast two hybrid interaction of Grasp55 constructs with JAM-C; type: binding, murine; design: key: Symbols “+++” and “−” indicates the growth of yeast on selective media as shown in the FIGURE 13; Symbols “+++” and “−” indicates the growth of yeast on selective media as shown in the FIGURE 13
T4 construct: amino-acids 263 to 310 of murine JAM-C; expressed in transfected cells; host or cells: AH109 yeast strain
T4 sequence (Q9D8B7 263-310): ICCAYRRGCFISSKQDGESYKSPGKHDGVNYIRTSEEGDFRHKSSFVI
Excerpt: as §1, §2

JAM-B ΔPDZbm = target: T5, JAM-B ΔPDZbm (Mus musculus, UniProt Q9JI59); test: yeast two hybrid interaction of Grasp55 constructs with JAM-B ΔPDZbm; type: binding, murine; design: key: Symbols “+++” and “−” indicates the growth of yeast on selective media as shown in the FIGURE 13; Symbols “+++” and “−” indicates the growth of yeast on selective media as shown in the FIGURE 13
T5 construct: amino-acids 258 to 298 of murine JAM-B; expressed in transfected cells; host or cells: AH109 yeast strain
T5 sequence (Q9JI59 258-295 limits assumed): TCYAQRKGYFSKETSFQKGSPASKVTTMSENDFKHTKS
Excerpt: as §1, §2

JAM-A ΔPDZbm = target: T6, JAM-A ΔPDZbm (Mus musculus, UniProt O88792, R268T); test: yeast two hybrid interaction of Grasp55 constructs with JAM-A ΔPDZbm; type: binding, murine; design: key: Symbols “+++” and “−” indicates the growth of yeast on selective media as shown in the FIGURE 13; Symbols “+++” and “−” indicates the growth of yeast on selective media as shown in the FIGURE 13
T6 construct: amino-acids 260 to 299 of murine JAM-A; expressed in transfected cells; host or cells: AH109 yeast strain
T6 sequence (O88792 260-297 R268T): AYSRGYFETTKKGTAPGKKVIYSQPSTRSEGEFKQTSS
Excerpt: as §1, §2

JAM-A = target: T7, JAM-A (Mus musculus, UniProt O88792, R268T); test: yeast two hybrid interaction of Grasp55 constructs with JAM-A; type: binding, murine; design: key: Symbols “+++” and “−” indicates the growth of yeast on selective media as shown in the FIGURE 13; Symbols “+++” and “−” indicates the growth of yeast on selective media as shown in the FIGURE 13
T7 construct: amino-acids 260 to 299 of murine JAM-A; expressed in transfected cells; host or cells: AH109 yeast strain
T7 sequence (O88792 260-300 R268T): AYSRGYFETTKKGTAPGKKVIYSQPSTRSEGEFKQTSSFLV
Excerpt: as §1, §2

ADAM17 = target: T8, ADAM17 (Mus musculus, UniProt Q9Z0F8, A775V/P752S); test: yeast two hybrid interaction of Grasp55 constructs with ADAM17 C-terminal sequence; type: binding, murine; design: key: Symbols “+++” and “−” indicates the growth of yeast on selective media as shown in the FIGURE 13; Symbols “+++” and “−” indicates the growth of yeast on selective media as shown in the FIGURE 13
T8 construct: expressed in transfected cells; host or cells: AH109 yeast strain
Excerpt: as §1, §2

B16F10 cells [1] = test: wound healing assay (cell migration); type: cell-based, mouse; conditions: B16F10 stably transfected with shRNA; shctrl 249±5; Mean+/−SEM
Protocol: Transient transfections were performed on a 50% confluent monolayer of B16F10 cells with either 10 nM of siRNA or 5 μg of shRNA against luciferase used as a control or shRNA against GRASP55 in Lipofectamine RNAimax (Invitrogen). Transfection efficiency was monitored at 24 h by qRT-PCR and Western blots for the expression of GRASP55 transcript or protein. For selection of stable transfectants, cells were grown in DMEM containing 10 μg/ml of puromycine (Sigma Aldrich) starting 48 h after transfection.
For in vitro wound healing assays, 80% confluent monolayers of wild-type B16F10 cells or B16F10 cells transfected with various siRNA or shRNA were grown in both chambers of Ibidi culture inserts with defined cell free gaps. Cells were subjected to serum starvation for 24 h, before wounds were created by removing Ibidi culture inserts that define cell gaps of 400 μm. The wound healing was carried out for 8 h in complete DMEM medium and was recorded at various times after wounding. Analysis of wound closure was performed using Metamorph software and is expressed as mean speed per minute.

B16F10 cells [2] = test: ELISA of soluble JAM-C in cell culture supernatant; type: cell-based, mouse; conditions: B16F10 control 0.27±0.02; mean±SEM
Protocol: An ELISA was designed to determine the concentration of soluble JAM-C in cell culture supernatants. Ninety-six-well plates (Nalge Nunc International) were coated overnight at room temperature with rat anti-mouse JAM-C antibody H36 (home-made). Plates were washed and blocked with buffer containing PBS and 2% of bovine albumin for 2 hours. Cell culture supernatants from different cell conditions were incubated during 3 hours. Plates were washed, and polyclonal rabbit anti-JAM-C (501) was added for 1 hour at room temperature. After three washes, donkey anti-rabbit HRP antibody was put on. To reveal the final read out, the substrate of HRP, tetramethylbenzidine ([…]) is adjoined. The absorbance lecture (D.O at 450 nm) is carried out on a ELISA POLARstar reader.

T8 sequence (Q9Z0F8 693-827 P752S/A775V): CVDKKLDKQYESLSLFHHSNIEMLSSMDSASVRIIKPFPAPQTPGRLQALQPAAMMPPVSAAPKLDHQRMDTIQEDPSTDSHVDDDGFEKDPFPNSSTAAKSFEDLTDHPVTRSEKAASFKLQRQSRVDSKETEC

Row | Substance | interaction with JAM-B (yeast growth on selective media) (JAM-B) | interaction with ADAM10 (yeast growth on selective media) (ADAM10) | interaction with JAM-C ΔPDZbm (yeast growth on selective media) (JAM-C ΔPDZbm) | interaction with JAM-C (yeast growth on selective media) (JAM-C) | interaction with JAM-B ΔPDZbm (yeast growth on selective media) (JAM-B ΔPDZbm) | interaction with JAM-A ΔPDZbm (yeast growth on selective media) (JAM-A ΔPDZbm) | interaction with JAM-A (yeast growth on selective media) (JAM-A) | interaction with ADAM17 (yeast growth on selective media) (ADAM17) | mean velocity (B16F10 cells [1]) [nm/min] | quantity of soluble JAM-C in cell culture supernatant (B16F10 cells [2]) [ng/mL]
1 | PDZI + II: Grasp55 construct, residues 1 to 160 | +++ | − | − | +++ | − | − | +++ | − |  | 
2 | PDZI: Grasp55 construct, residues 1 to 79 | − | − | − | − | − | − | − | − |  | 
3 | PDZII: Grasp55 construct, residues 80 to 160 | − | +++ | − | − | − | − | − | +++ |  | 
4 | shGRASP55: shRNA against mouse GRASP55 in pSUPER.retro, target SEQ ID NO: 11, strands SEQ ID Nos. 12 and 13 (chain 1 CGGUUCAAGAUUAAAUAAATT; chain 2 AATTTATTTAATCTTGAACCG) |  |  |  |  |  |  |  |  | 184 ± 6 | 0.21 ± 0.01

— patent US9107936B2, “Antagonists of GRASP55 for use as a medicament” (Institut National de la Sante et de la Recherche Medicale …, priority 2012, dated 2015)
